Measured values taken from US20150018283A1.

Columns and labels:
[1] = molecular target: N-type calcium channels in cultured mouse dorsal root ganglion (DRG) neurons (Swiss mice) (UniProt O55017); assay: cell-based or functional assay
IL-8RB = IL-8RB (UniProt P25025); assay: competitive radioligand binding; 10 µM unlabelled Tat-NR2B9c; competitor labeled IL-8
[2] = molecular target: N-type Ca channels (receptor binding screen of Example 1)

Sequence of IL-8RB (P25025 whole entry): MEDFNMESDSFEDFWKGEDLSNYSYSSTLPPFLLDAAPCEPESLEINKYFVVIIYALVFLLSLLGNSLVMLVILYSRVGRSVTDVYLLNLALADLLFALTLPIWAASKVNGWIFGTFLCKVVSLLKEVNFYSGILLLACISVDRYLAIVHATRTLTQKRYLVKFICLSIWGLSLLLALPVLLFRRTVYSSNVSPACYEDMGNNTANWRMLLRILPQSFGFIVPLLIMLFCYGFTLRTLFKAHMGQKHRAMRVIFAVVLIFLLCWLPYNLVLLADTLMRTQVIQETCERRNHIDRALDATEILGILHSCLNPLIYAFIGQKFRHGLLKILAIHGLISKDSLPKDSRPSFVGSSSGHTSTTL

Row | Molecule | Ca^2+ current shown as a percentage, peptide at 100 µM [1] [%] | % inhibition of labeled ligand binding (IL-8RB) [%] | % inhibition of labeled ligand binding [2] [%]
1 | 1987 D-Tat-NR2B9c (peptide) | 82 |  | 
2 | 1990 TAT (peptide) | 57 |  | 
3 | 1992 Tat-NR2B9c-AA (peptide) | 74 |  | 
4 | 1993 F-Tat-NR2B9c (peptide) | 91 |  | 
5 | Tat-NR2B9c (peptide) |  | 80 | 100
6 | KLSSIESDV [1991 2B9c] | 94 |  | 
